Substitutions are numbered along the chain they refer to. Values joined by “and” are separate entries in the source; they are usually repeats but may differ in a detail not shown here. Equal entries are not always repeated. Each block holds one molecule with its values, some of them ahead of it.
What was measured:
[1] = system: induced high-expression PD-L1 CT26 tumor cell; experiment: Combined anti-tumor effect of Nb16 and SZU-101, IFN-γ-induced CT26 subcutaneous tumor model; assay type: in vivo, BALB/c mouse; conditions: Nb16 10 mg/kg intraperitoneal, SZU-101 3 mg/kg peritumoral
Protocol: The mouse CT26 tumor cells were recovered and passaged, it was ensured that tumor cells at least have been subjected to 3 generations during tumor-bearing, and mouse IFN-γ with a final concentration of 100 ng/mL was used to induce tumor cells for 24 h before tumor-bearing, so that the cell surface thereof highly expresses PD-L1; the induced high-expression PD-L1 CT26 tumor cell was inoculated subcutaneously into a female BALB/c mouse, wherein the inoculation amount was 1×10^6 cells/one; and randomly grouping mice into four groups (9 per group), i.e., a same-type control group (mFc), a nano-antibody Nb16 group (Nb16), a TLR7 agonist SZU-101 group (SZU-101) and a combined treatment group (NB16/SZU-101), wherein the administration amount of the mFc and the Nb16 was 10 mg/kg, and intraperitoneal administration was performed; and the administration amount of the SZU-101 was 3 mg/kg, and the tumor was administered circumferentially. The administration cycle were Nb16 administered on D1, D5, D9, D12, and D14 and SZU-101 administered on D9-D14 (3A). The body weight of the mouse and the tumor major diameter (L) and the short diameter (W) in the administration cycle were observed and recorded until the anatomical endpoint, and the tumor volume V=(L×W×W)/2 was calculated, a tumor growth curve was drawed, and the tumor inhibition rate was calculated; and the experiment was terminated on the fifteenth day. After performing euthanasia, the animal was dissected, and the subcutaneous tumor was taken out.

PD-1/PD-L1 = PD-1/PD-L1 (Mus musculus, UniProt Q9EP73); experiment: In vitro activity of candidate nanobodies NB9, NB10, NB11, NB17 (blocking or non-blocking type); assay type: binding
HEK293T/hPD-L1 = molecular target: T1, HEK293T/hPD-L1 (Homo sapiens, UniProt Q9NZQ7); experiment: Human PD-L1 binding activity assay of candidate anti-human PD-L1 nanobodies (flow cytometry); conditions: nanobody 10 μg/mL
T1 construct: expressed in transfected cells; host or cells: HEK293T
Protocol: The cell strain HEK293T/hPD-L1 was digested, and centrifugationwas performed to remove the supernatant; the cells were washed one time with PBS and the cell density was adjusted to 2.5×10^6 cells/mL; each cell sample was added to a 100 μL cell suspension, that is, a 2.5×10^5 cell/sample was comprised; different anti-human PD-L1 candidate nanobodies (the concentration is 10 μg/mL) were respectively added to the samples; incubating for 20 min at 4° C.; centrifuging, removing supernatant, and the cells were washing once with PBS; using diluted antibody anti-human IgG Fc (FITC) as secondary antibody, and the cells were re-suspended; incubating at 4° C. for 20 min; centrifuging, removing supernatant, the cells were washing twice with PBS, and transferred to a flow tube; and was performed on-machine detection by using a flow cytometer to obtain the binding activity of the candidate nanobody and human PD-L1, as shown in FIG. 13.

[2] = molecular target: T2, human PD-1/PD-L1 (HEK293T/hPD-L1) (Homo sapiens, UniProt Q9NZQ7); experiment: Human PD-1/PD-L1 blocking activity assay of candidate anti-human PD-L1 nanobodies (flow cytometry); assay type: binding; conditions: nanobody 10 μg/mL, human PD-1-his 1 μg/mL
T2 construct: expressed in transfected cells; host or cells: HEK293T
Protocol: The cell strain HEK293T/hPD-L1 was digested, and centrifugationwas performed to remove the supernatant; the cells were washed one time with PBS and the cell density was adjusted to 2.5×10^6 cells/mL; each cell sample was added to a 100 μL cell suspension, that is, a 2.5×10^5 cell/sample was comprised; and the human PD-1-his protein (the concentration was 1 μg/mL) and the anti-human PD-L1 candidate nanobody (the concentration was 10 μg/mL) were respectively added to the sample; the cells were incubated for 20 min at 4° C.; centrifuging, supernatant was removed, and the cells were washed once with PBS; using diluted antibody anti-his-APC as secondary antibody, and the cells were re-suspended; incubated at 4° C. for 20 min; centrifuging, supernatant was removed, the cells were washedtwice with PBS, and was transferred to a flow tube; and was performed on-machine detection by using a flow cytometer to obtain the PD-1/PD-L1 blocking activity of the candidate nanobody, as shown in FIG. 14.

mPD-L1-Fc fusion protein [3] = molecular target: T3, mPD-L1-Fc fusion protein (mouse; human, UniProt Q9EP73 19-239); experiment: competition ELISA, coated mPD-L1-Fc, 10 µg/mL mouse PD-1-Fc-Biotin, SA-HRP detection
T3 construct: extracellular domain; also called Mouse PD-L1 (ECD)-pFUSE-hIgG1-Fc; not shown: Fc of human IgG1 from vector pFUSE-hIgG1-Fc
Protocol: Coating the plate with mPD-L1-Fc fusion protein at 4° C. overnight, then the plate was sealed with BSA at 37° C. for 2 hours, Nb16 nanobodies of different concentrations and 10 μg/mL mouse PD-1-Fc-Biotin fusion protein were added in each hole., After reacting at room temperature for 1 hour, the plate was washed and antibody SA-HRP was added, and the plate reacted at room temperature for 1 hour. After washing, a color developing solution was added, and an absorption value was read at a wavelength of 450 nm.

mPD-L1-Fc fusion protein [4] = molecular target: T3, mPD-L1-Fc fusion protein; experiment: ELISA, coated mPD-L1-Fc, anti-mouse HRP detection
Protocol: Coating the plate with mPD-L1-Fc fusion protein at 4° C. overnight, then the plate was sealed with BSA at 37° C. for 2 hours, Nb 16 nanobodies of different concentrations were added in each hole, reacted at room temperature for 1 hour, and the plate were washed and goat anti-mouse horseradish peroxidase labeled antibody was added, and reacting at room temperature for 1 hour. After washing, a color developing solution was added, and an absorption value was read at a wavelength of 450 nm.

[5] = molecular target: T4, mouse PD-L1 on cell strain HEK293T/mPD-L1 (mouse, UniProt Q9EP73 19-290); experiment: flow cytometry on HEK293T/mPD-L1, anti-mouse IgG Fc (PE)
T4 construct: whole, on cells
T4 sequence (Q9EP73 19-290): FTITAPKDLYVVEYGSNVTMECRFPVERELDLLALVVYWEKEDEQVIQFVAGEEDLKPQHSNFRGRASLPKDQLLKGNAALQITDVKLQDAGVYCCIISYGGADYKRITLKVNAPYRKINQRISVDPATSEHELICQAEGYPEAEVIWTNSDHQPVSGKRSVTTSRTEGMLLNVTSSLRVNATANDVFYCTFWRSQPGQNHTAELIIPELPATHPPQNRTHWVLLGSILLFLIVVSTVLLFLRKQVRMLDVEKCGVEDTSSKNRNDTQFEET

T1 sequence (Q9NZQ7 19-290): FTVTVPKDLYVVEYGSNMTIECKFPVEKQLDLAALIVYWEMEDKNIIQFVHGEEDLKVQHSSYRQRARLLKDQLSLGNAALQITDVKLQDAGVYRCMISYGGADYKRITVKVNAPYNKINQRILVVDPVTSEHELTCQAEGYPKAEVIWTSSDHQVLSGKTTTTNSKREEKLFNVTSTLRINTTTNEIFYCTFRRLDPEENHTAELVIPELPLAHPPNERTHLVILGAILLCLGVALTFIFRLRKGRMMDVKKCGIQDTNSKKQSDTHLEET
Sequence of PD-1/PD-L1 (Q9EP73 19-239): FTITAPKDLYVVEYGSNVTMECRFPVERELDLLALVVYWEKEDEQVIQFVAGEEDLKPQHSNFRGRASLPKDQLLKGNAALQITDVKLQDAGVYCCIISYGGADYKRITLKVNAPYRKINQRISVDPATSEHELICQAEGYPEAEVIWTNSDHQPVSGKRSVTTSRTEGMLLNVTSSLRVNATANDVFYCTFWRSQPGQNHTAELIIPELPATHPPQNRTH
T2 sequence (Q9NZQ7 19-290): as the sequence (Q9NZQ7 19-290) above
T3 sequence (Q9EP73 19-239 limits assumed): as the sequence (Q9EP73 19-239) above

Molecule: COCCOc1nc(N)c2nc(O)n(Cc3ccc(CNC(=O)CCC(=O)O)cc3)c2n1 [SZU-101]
Anti-tumor effect [1]: significantly inhibit tumor growth
Tumor inhibitory rate ([1]; day 15): 49%
Endpoint tumor Weight ([1]; individual mice, day 15): 0.298 g and 0.560 g and 0.330 g and 0.278 g and 0.354 g and 0.516 g and 0.286 g and 0.328 g and 0.426 g

Blocking type or non-blocking type nanobody (PD-1/PD-L1): non-blocking
B1: Nb17: anti-PD-L1 nanobody, VHH SEQ ID NO: 17 (protein)
VHH: QVQLQESGGGSVQAGGSLRLSCAASGYSARRRMGWFRQAPGKEREGVASIYTAGGRTWYADSVKGRFTISQDNAKNTVYLQMNSLKPDDTAMYYCAASPAPYGAESLSEADFAYWGQGTQVTVSS
modifications: Nb17 Amino acid sequence of VHH

Binding activity with human PD-L1 (HEK293T/hPD-L1): good binding activity
B2: h_Nb12: anti-human PD-L1 nanobody, VHH SEQ ID NO: 44 (protein)
VHH: DVQLQESGGGLVQAGGSLRLSCAASGRTFSSRAMGWFRQAPGKEREFVAAISGSGRNTYYADSVKGRFTISRDNAKNSVNLQMNSLKPEDTAVYYCNAAGGGITIATMTQRTQYDYWGQGTQVTVSS
modifications: h_Nb12 Amino acid sequence of VHH

Blocking type or non-blocking type nanobody (PD-1/PD-L1): blocking type
B3: Nb10: anti-PD-L1 nanobody, VHH SEQ ID NO: 9 (protein)
VHH: QVQLQESGGGSVQAGGSLRLSCAASGYRFCRLAMRWYRQAPGKEREFVSFIDSGGTTSYADSVKGRFTISRDSAKNTVYLQMNSLKPEDTGMYYCNSDILGGGGGCPVSSYWGQGTQVTVSS
modifications: Nb10 Amino acid sequence of VHH

Blocking type or non-blocking type nanobody (PD-1/PD-L1): blocking type
B4: Nb9: anti-PD-L1 nanobody, VHH SEQ ID NO: 5 (protein)
VHH: QVQLQESGGGLVHPGGSLRLSCAASGFTFSSYTMRWVRQAPGKGLEWVSGINNVGGSTLYADSVKGRFTISRDNAKNTLYLQMNSLQPDDTAMYYCATGIIGSGLETATYRGQGTQVTVSS
modifications: Nb9 Amino acid sequence of VHH

Binding activity with human PD-L1 (HEK293T/hPD-L1): good binding activity
Blocking of human PD-1/PD-L1 binding [2]: effectively block
B5: h_Nb1: anti-human PD-L1 nanobody, VHH SEQ ID NO: 21 (protein)
VHH: DVQLQESGGGLVQPGGSLRLSCAASGFTFSSYAMSWVRQAPGKGLEWVSDINSGGDNTDYADSVKGRFTISRDNAKNTLYLQMNSLKPEDTAVYYCARGPKLCFSSWGQGTQVTVSS
modifications: h_Nb1 Amino acid sequence of VHH

Binding activity with human PD-L1 (HEK293T/hPD-L1): good binding activity
Blocking of human PD-1/PD-L1 binding [2]: effectively block
B6: h_Nb2: anti-human PD-L1 nanobody, VHH SEQ ID NO: 25 (protein)
VHH: DVQLQESGGGLVQPGGSLRLSCAASGFTFGDRWMYWLRQAPGKGLEWVSSINPAGRSTYYADSVKGRFTISRDNAKNTLYLQMNSLKSEDTAVYYCTKDPGGYQKGQGTQVTVSS
modifications: h_Nb2 Amino acid sequence of VHH

Binding activity with human PD-L1 (HEK293T/hPD-L1): good binding activity
B7: h_Nb13: anti-human PD-L1 nanobody, VHH SEQ ID NO: 48 (protein)
VHH: DVQLQESGGGLVQPGGSLRLSCAASGSIFSINAMGWYRQAPGKSRELVAAITSGGSTNYADSVKGRFTISRDTAKNTVYLLMNSLEPEDTAVYYCNVERRRPPHYLSEYDFDWGQGTQVTVSS
modifications: h_Nb13 Amino acid sequence of VHH

Binding activity with human PD-L1 (HEK293T/hPD-L1): good binding activity
B8: h_Nb26: anti-human PD-L1 nanobody, VHH SEQ ID NO: 56 (protein)
VHH: B7 VHH with S25P, S30R, S44Q, K64Q, T73N, L81Q, E86K, L106Y, E108D
modifications: h_Nb26 Amino acid sequence of VHH

Blocking type or non-blocking type nanobody (PD-1/PD-L1): non-blocking
B9: Nb11: anti-PD-L1 nanobody, VHH SEQ ID NO: 13 (protein)
VHH: QVQLQESGGGSVQAEGSLRLSCSAPIYVTYYGTYCMGWFRQAPGKEREGVAGISGDGRTSYADSVKGRFTVSKDNAKNTLYLEMNSLKPEDTAMYYCALRIGGYCDTLNGADFRYWGQGTQVTVSS
modifications: Nb11 Amino acid sequence of VHH

Binding activity with human PD-L1 (HEK293T/hPD-L1): good binding activity
B10: h_Nb9: anti-human PD-L1 nanobody, VHH SEQ ID NO: 40 (protein)
VHH: DVQLQESGGGLVQPGGSLRLSCASSGSIFGLGVKGWYRQPPGNQREMVAQIISGGRISYADSVKGRFTISRDNAKNTVYLQMNSLKPEDTAVYYCNAWGPGQRNYWGRGTQVTVSS
modifications: h_Nb9 Amino acid sequence of VHH

IC50 (mPD-L1-Fc fusion protein [3]): 1.02 µg/mL
EC50 (mPD-L1-Fc fusion protein [4]): 0.045 µg/mL
B11: nanobody Nb16 (Fc fusion)
chain: QVQLQESGGGSVQAGGSLRLSCAASGYTDRNYWMGWFRQAPGKEREGVAALYTRTGSTYYADSVKGRFTISHDNAKNTLYLQMNSLKPEDTAVYYCAADSNAYGLAPLHHYWGQGTQVTVSS
notes: also called bare anti-Nb16; original PD-L1 nanobody; not shown: Fc of mouse IgG2b from vector pFUSE-mIgG2b-Fc

binding result [5]: binds
B12: PD-L1 and TLR7 double-targeting nanobody coupling drug Nb16-SZU-101 (Fc fusion)
chain: B11 chain
modifications: TLR7 agonist SZU-101 coupled through SZU-101-NHS active ester to amino groups, sites not given; coupling degree 4.5
notes: not shown: Fc of mouse IgG2b from vector pFUSE-mIgG2b-Fc
